Consider 1 substance from article PMC6279779.

Test [1] concerns the target soluble domain of Arabidopsis thaliana cytochrome c1 (Arabidopsis thaliana).
The target is the same in test [2]. The source holds these as a separate data set.

Substance “Homo sapiens E104C cytochrome c mutant (from UniProt P99999 1-105) (natural protein)” gave a distance decay factor (β) of the pCc1–hCc current after addition of wild-type hCc (12.5 μM, without C-terminal cysteine) to the medium, as an inhibition experiment in test [1] of 3 nm^−1. For the same substance, in test [2], the average distance decay factor (β) of the pCc1–hCc current against the electrochemical gate potential at 200 mV constant bias; minimum at −0.25 V EC gate potential amounted to 0.5 nm^−1.
